{"source": "paper PMC10229228", "about": "“Structural insights into a regulatory mechanism of FIR RRM1–FUSE interaction”", "conditions_in_all_cases": "protein: recombinant; tags: N-terminal His6, removed by TEV; single strand", "key": {"FIR RRM1-2 WT [1]": {"molecular_target": "T1, FIR RRM1-2 WT (UniProt Q9UHX1-2 101-293)", "T1 sequence (Q9UHX1 118-310)": "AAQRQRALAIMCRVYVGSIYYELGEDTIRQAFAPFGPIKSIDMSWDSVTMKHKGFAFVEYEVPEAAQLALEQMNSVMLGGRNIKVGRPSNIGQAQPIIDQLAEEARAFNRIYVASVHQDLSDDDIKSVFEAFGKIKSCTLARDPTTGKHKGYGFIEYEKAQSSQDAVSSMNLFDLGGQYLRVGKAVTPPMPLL", "assay": "X-ray crystallography (2.05 A); ethylene glycol contacts the bound guanine; ITC: 25 mM HEPES pH 7.5, 150 mM NaCl, 0.5 mM TCEP, 20 C; protein 160-240 uM titrated into ssDNA 40-50 uM"}, "FIR RRM1-2 Y115F [2]": {"molecular_target": "T2, FIR RRM1-2 Y115F (UniProt Q9UHX1-2 101-293, Y115F)", "T2 sequence (Q9UHX1 118-310 Y132F)": "as the sequence (Q9UHX1 118-310) above, with Y15F counted along it", "assay": "X-ray crystallography (1.65 A); ITC: 25 mM HEPES pH 7.5, 150 mM NaCl, 0.5 mM TCEP, 20 C; protein 160-240 uM titrated into ssDNA 40-50 uM"}, "FIR RRM1-2 WT [3]": {"molecular_target": "T1, FIR RRM1-2 WT", "assay": "ITC; ITC: 25 mM HEPES pH 7.5, 150 mM NaCl, 0.5 mM TCEP, 20 C; protein 160-240 uM titrated into ssDNA 40-50 uM"}, "FIR RRM1-2 Y115F [4]": {"molecular_target": "T2, FIR RRM1-2 Y115F", "assay": "ITC; ITC: 25 mM HEPES pH 7.5, 150 mM NaCl, 0.5 mM TCEP, 20 C; protein 160-240 uM titrated into ssDNA 40-50 uM"}}, "data": [{"binder": "TTTTTATTTTGTGTT (ssDNA)", "note": "[FUSE 15-nt]", "values": [{"measurement": "binding result", "setting": "FIR RRM1-2 WT [1]", "result": "binds"}, {"measurement": "binding result", "setting": "FIR RRM1-2 Y115F [2]", "result": "binds"}]}, {"binder": "TTGTTTT (ssDNA)", "values": [{"measurement": "Kd", "setting": "FIR RRM1-2 WT [3]", "result": 2, "unit": "µM"}]}, {"binder": "TAATTTT (ssDNA)", "values": [{"measurement": "Kd", "setting": "FIR RRM1-2 Y115F [4]", "result": "~6", "unit": "µM"}]}, {"binder": "TTATTTT (ssDNA)", "values": [{"measurement": "Kd", "setting": "FIR RRM1-2 WT [3]", "result": 11, "unit": "µM"}]}]}
